PMC9513909, “Genomic distribution and context dependent functionality of novel WRKY transcription factor binding sites”

Tests used:
WRKY50BD [1] = target: T1, WRKY50BD (Arabidopsis thaliana, UniProt Q8VWQ5 86-173); assay: EMSA; shift abolished or strongly reduced by 4000-fold unlabelled S1; EMSA with 3' biotin-labelled probes (LightShift kit detection); buffer, salt, pH and temperature not given (earlier protocols cited); conditions: protein: recombinant; label: 3' biotin (probe)
WRKY70 [2] = target: T2, WRKY70 (Arabidopsis thaliana, UniProt Q9LY00 1-294); assay: EMSA; EMSA with 3' biotin-labelled probes (LightShift kit detection); buffer, salt, pH and temperature not given (earlier protocols cited); conditions: protein: recombinant; label: 3' biotin (probe)
T2 sequence: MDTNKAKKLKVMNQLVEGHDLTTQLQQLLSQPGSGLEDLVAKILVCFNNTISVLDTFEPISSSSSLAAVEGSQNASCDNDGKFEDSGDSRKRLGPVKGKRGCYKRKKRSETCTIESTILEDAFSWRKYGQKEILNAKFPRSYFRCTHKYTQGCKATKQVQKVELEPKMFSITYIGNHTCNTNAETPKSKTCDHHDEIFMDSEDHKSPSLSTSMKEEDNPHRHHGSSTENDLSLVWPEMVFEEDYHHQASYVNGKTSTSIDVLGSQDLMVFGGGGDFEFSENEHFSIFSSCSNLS

WRKY50BD [3] = target: T1, WRKY50BD; assay: competition; 4000-fold excess against labelled S1; EMSA with 3' biotin-labelled probes (LightShift kit detection); buffer, salt, pH and temperature not given (earlier protocols cited); conditions: protein: recombinant; label: unlabelled
WRKY70 [4] = target: T2, WRKY70; assay: competition; 4000-fold excess against labelled S2; EMSA with 3' biotin-labelled probes (LightShift kit detection); buffer, salt, pH and temperature not given (earlier protocols cited); conditions: protein: recombinant; label: unlabelled
WRKY50BD [5] = target: T1, WRKY50BD; assay: as above; conditions: protein: recombinant; label: unlabelled
WRKY70 [6] = target: T2, WRKY70; assay: EMSA; shift abolished or strongly reduced by 4000-fold unlabelled S2; EMSA with 3' biotin-labelled probes (LightShift kit detection); buffer, salt, pH and temperature not given (earlier protocols cited); conditions: protein: recombinant; label: 3' biotin (probe)
WRKY50BD [7] = target: T1, WRKY50BD; assay: as above; conditions: protein: recombinant; label: 3' biotin (probe)

T1 sequence (Q8VWQ5 86-173): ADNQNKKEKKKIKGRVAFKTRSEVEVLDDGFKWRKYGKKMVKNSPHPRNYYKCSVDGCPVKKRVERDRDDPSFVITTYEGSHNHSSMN

B1: S1 (dsDNA)
DNA 1: CACATTTACATTGCGACTTTTCTTGCATGCCGTC
DNA 2: GACGGCATGCAAGAAAAGTCGCAATGTAAATGTG
binding result (WRKY50BD [1]): binds
binding result (WRKY70 [2]): no binding

B2: S1mut1 (dsDNA)
DNA 1: CACATTTACATTGCAGTCCCTCTTGCATGCCGTC
DNA 2: GACGGCATGCAAGAGGGACTGCAATGTAAATGTG
binding result (WRKY50BD [3]): no binding

B3: S2mut1 (dsDNA)
DNA 1: ATCGTCTAAGAGACAGTCCCTCTCGTAACTTTAT
DNA 2: ATAAAGTTACGAGAGGGACTGTCTCTTAGACGAT
binding result (WRKY70 [4]): no binding
binding result (WRKY50BD [5]): no binding

B4: S2 (dsDNA)
DNA 1: ATCGTCTAAGAGACGACTTTTCTCGTAACTTTAT
DNA 2: ATAAAGTTACGAGAAAAGTCGTCTCTTAGACGAT
binding result (WRKY70 [6]): binds
binding result (WRKY50BD [7]): binds
